Assay results reported in PMC8392704, “Small Hexokinase 1 Peptide against Toxic SOD1 G93A Mitochondrial Accumulation in ALS Rescues the ATP-Related Respiration” (Biomedicines, 2021).
Primed or numbered codes have the meaning given here. Where no end group is shown, it is not given here. FITC′ = not defined here

Target: T1, Recombinant 6xHis-tagged human VDAC1 (Voltage-Dependent Anion Channel 1) (human, UniProt P21796 1-283)
T1 construct: Voltage-Dependent Anion selective Channel 1 (VDAC1), human; PDB 6G6U is the cited crystal structure of human VDAC1, used only for docking; also called mitochondrial porin; porin; not shown: His6, C-terminal, kept
T1 sequence (P21796 whole entry): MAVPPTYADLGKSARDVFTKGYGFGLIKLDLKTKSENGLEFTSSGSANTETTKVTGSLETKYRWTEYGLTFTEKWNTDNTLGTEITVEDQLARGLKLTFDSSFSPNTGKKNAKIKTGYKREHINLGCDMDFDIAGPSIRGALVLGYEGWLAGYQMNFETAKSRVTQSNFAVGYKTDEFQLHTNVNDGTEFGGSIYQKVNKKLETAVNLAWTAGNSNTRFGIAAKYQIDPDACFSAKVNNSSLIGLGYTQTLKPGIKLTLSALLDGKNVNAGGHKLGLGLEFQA
Assay: pull-down + SEC; 1 uM C-terminal His-tagged VDAC1 immobilised on Ni2+-Sepharose beads, incubated with 1 uM NHK1-FITC for 24 h; unbound peptide washed off; eluted with 200 mM imidazole; eluate loaded on Superdex200 and the complex detected by FSEC (ex/em 494/518 nm), with the VDAC1 profile at 280 nm
Conditions: both partners purified

B1: NHK1-FITC peptide (FITC-labeled NHK1, residues 2-12 of human HK1) (peptide)
peptide: IAAQLLAYYFT-{FITC′}
notes: hexokinase 1 (HK1), human, amino acids 2-12; also called FITC-NHK1; NHKI; source: synthetic peptide, produced by Proteogenix
B1: binds.
